# Test results published in the array DNA melting data of Ke et al..
# Assay: melting temperature; melt of duplexes
# Details: sodium 0.0675 M; strand 1 µM
row,Substance,Tm [°C]
1,CGACGTGCCAGATGTGCTG+CAGCACATGCGGCACGTCG (((((((((..((((((((+))))))))..))))))))),54.6
2,CGACGTGCTATATGTGCTG+CAGCACATTGAGCACGTCG (((((((((..((((((((+))))))))..))))))))),52.9
3,CGACGTGCTTTATGTGCTG+CAGCACATTGGGCACGTCG ((((((((...((((((((+))))))))...)))))))),49.8
4,CGACGTGCTAGATGTGCTG+CAGCACATCAAGCACGTCG (((((((((.(((((((((+))))))))).))))))))),57.5
5,CGACGTGCGGCATGTGCTG+CAGCACATTTTGCACGTCG ((((((((...((((((((+))))))))...)))))))),48.7
6,CGACGTGCAGAATGTGCTG+CAGCACATCTTGCACGTCG (((((((((..((((((((+))))))))..))))))))),52.3
7,CGACGTGCTACATGTGCTG+CAGCACATTTTGCACGTCG ((((((((.(.((((((((+)))))))).).)))))))),50.4
8,CGACGTGCAATATGTGCTG+CAGCACATTGCGCACGTCG ((((((((...((((((((+))))))))...)))))))),50
9,CGACGTGCTGCATGTGCTG+CAGCACATACTGCACGTCG ((((((((.(.((((((((+)))))))).).)))))))),53
10,CGACGTGCCCAATGTGCTG+CAGCACATAATGCACGTCG ((((((((...((((((((+))))))))...)))))))),47.6
11,CGACGTGCCTAATGTGCTG+CAGCACATAGTGCACGTCG ((((((((...((((((((+))))))))...)))))))),47.2
12,CGACGTGCCGGATGTGCTG+CAGCACATTCAGCACGTCG ((((((((.(.((((((((+)))))))).).)))))))),52.4
13,CGACGTGCAGTATGTGCTG+CAGCACATGGCGCACGTCG ((((((((...((((((((+))))))))...)))))))),50.2
14,CGACGTGCTTGATGTGCTG+CAGCACATAACGCACGTCG ((((((((.(.((((((((+)))))))).).)))))))),50.8
15,CGACGTGCGATATGTGCTG+CAGCACATTCAGCACGTCG ((((((((...((((((((+))))))))...)))))))),52.8
16,CGACGTGCTCAATGTGCTG+CAGCACATGCTGCACGTCG ((((((((...((((((((+))))))))...)))))))),47.9
17,CGACGTGCAGTATGTGCTG+CAGCACATCATGCACGTCG (((((((((..((((((((+))))))))..))))))))),51.4
18,CGACGTGCTACATGTGCTG+CAGCACATGGAGCACGTCG (((((((((.(((((((((+))))))))).))))))))),61.7

row,Substance,Tm [°C]
1,CGACGTGCGATATGTGCTG+CAGCACATGCAGCACGTCG ((((((((...((((((((+))))))))...)))))))),53.6
2,CGACGTGCTTTATGTGCTG+CAGCACATGCCGCACGTCG ((((((((...((((((((+))))))))...)))))))),46.7
3,CGACGTGCGTCATGTGCTG+CAGCACATAATGCACGTCG ((((((((.(.((((((((+)))))))).).)))))))),52.2
4,CGACGTGCGCAATGTGCTG+CAGCACATCTTGCACGTCG ((((((((...((((((((+))))))))...)))))))),48.7
5,CGACGTGCCAGATGTGCTG+CAGCACATTCCGCACGTCG ((((((((...((((((((+))))))))...)))))))),49.6
6,CGACGTGCAGCATGTGCTG+CAGCACATTCAGCACGTCG ((((((((.(.((((((((+)))))))).).)))))))),47.8
7,CGACGTGCCTCATGTGCTG+CAGCACATGCGGCACGTCG (((((((((.(((((((((+))))))))).))))))))),58.3
8,CGACGTGCGTAATGTGCTG+CAGCACATCGAGCACGTCG ((((((((...((((((((+))))))))...)))))))),53.1
9,CGACGTGCAGTATGTGCTG+CAGCACATTTGGCACGTCG ((((((((...((((((((+))))))))...)))))))),49.2
10,CGACGTGCCTGATGTGCTG+CAGCACATGAAGCACGTCG ((((((((.(.((((((((+)))))))).).)))))))),49.8
11,CGACGTGCTAAATGTGCTG+CAGCACATCACGCACGTCG ((((((((...((((((((+))))))))...)))))))),49
12,CGACGTGCCACATGTGCTG+CAGCACATGGCGCACGTCG ((((((((..(((((((((+)))))))))..)))))))),54
13,CGACGTGCCCGATGTGCTG+CAGCACATCTTGCACGTCG ((((((((..(((((((((+)))))))))..)))))))),52.5
14,CGACGTGCCCTATGTGCTG+CAGCACATCATGCACGTCG ((((((((...((((((((+))))))))...)))))))),46.8
15,CGACGTGCAGGATGTGCTG+CAGCACATAAGGCACGTCG ((((((((...((((((((+))))))))...)))))))),50.8
16,CGACGTGCAGTATGTGCTG+CAGCACATCTAGCACGTCG ((((((((...((((((((+))))))))...)))))))),50.8
17,CGACGTGCTGCATGTGCTG+CAGCACATGGAGCACGTCG (((((((((.(((((((((+))))))))).))))))))),61.2
18,CGACGTGCCGTATGTGCTG+CAGCACATTGCGCACGTCG ((((((((...((((((((+))))))))...)))))))),49.3
